# A protein production outcome set (Wang et al. 2014)
# Test: label from the status in PepcDB records
row,Sequence,protein production
1,MKHAKDIKVHKFNGPVKNDGKISVLVLGADKASGGKSRSDSIMVVQYDYIHKKMKMMSVMRDIYAEIPGYQNYKINAAYSLGGPELLRKTLNKNLGINPEYYAVIDFTGFEKMIDELEPNGVPMDVEKDMSENIGVSLKKGHHRLNGKELLGYARFRHDEEGDFGRVRRQQQVMQTLKKELVTPSSVIKLPKVAGILRGYINTSMPNSAIFQTGISYGIRGDKNVESLTVPINNSYQNINTNNDGSALEIDKEKNKKAVKEFLNNLEHHHHHH,failed
2,MDMRVSWFLLLLPFVLTSALAATSAASHASGPPAFMGQLTLLLLVAGATAFASFRLGLVPIIGFLFAGVLAGPSALGIIDDPALIGAASEIGVMLLLFTIGIEFSLDKLARIFRLIFVGGGLQVLLTVAAVTGVLLAFGVSLPNAVFTGFLLSLSSTAIVTKILESRGGVGSPTGQASLGILIFQDLAVVVMVLLVPMLAGQGGGAGGLVVALLKAGGIVAAVLLLARRVVPKLLEVVARTCSQEIFLLSTLSLCFATAYLTSLAGVSLALGAFLAGLLVSESRFGQQAFGEILPLQILFSAAFFLSVGLQLDLGFLWTHLPLVLGAVAVFAVLKALAAALSVRLLGFPLATAAATGWLLAQVGEFSFVLESSGRALGLSPAGLGETGTQTFIAATVLLMALTPVMATLGERLGALGRARPAPTAAPAEAPTRAEPNPEAPLAHLSGHVLVAGFGDHARRLVKGLAAQQVPFGVLTLSPDGAAQVTAHGYPVLIGDYARAGLLGDAGLASARALVVLDDVPEMTARVIGVARTLNPELTIVAHTDEPGEIATLRGVGATHVLTSTDAVARGVLGL,failed
3,MKKRAIVAVIVLLLIGLDQLVKSYIVQQIPLGEVRSWIPNFVSLTYLQNRGAAFSILQDQQLLFAVITLVVVIGAIWYLHKHMEDSFWMVLGLTLIIAGGLGNFIDRVSQGFVVDMFHLDFINFAIFNVADSYLTVGVIILLIAMLKEEINGN,failed
4,MKKWLLAAGLGLALATSAQAADKIAIVNMGSLFQQVAQKTGVSNTLENEFKGRASELQRMETDLQAKMKKLQSMKAGSDRTKLEKDVMAQRQTFAQKAQAFEQDRARRSNEERGKLVTRIQTAVKSVANSQDIDLVVDANAVAYNSSDVKDITADVLKQVK,not failed
5,INVRLKFLNDTEELAVARPEDTVGTLKSKYFPGQESQMKLIYQGRLLQDPARTLSSLNITNNCVIHCHRSPPGAAVSGPSAS,not failed
6,SEILRKFKILGRSKSPIFAFTVTAGLALTAVTGSATAVSIFRDSPSNKIATAVEGVVRSSRAIYSITLTVADYKYTLRRLPADSDEYLQRLTEVHSRSAKRILKLCESNKGFYVKAGQFVATLKLVPKEYSLALSSLQDKAVPCNFQEIKQVLTSNLGQNLTEIYLSFDEEPIAAASIAQVHHAVLKNHQEVAVKVQYPGLKQNMMLDTMIMSFLSKSVAKIFPEYRFDWLVYEFVKSISQELDFLQEAKNSERIAKNFKHNKMITIPTVFSEFTTTQVLTMQFCKGFKVDDVESLKRTNVSPEKVAKVLVEVFAEMIFVHGFIHGDPHPGNILVSPEGQNGFSLVLLDHGNCKTLDEAFRRDFCRLWEALILLDSNKIQELGKQFGVGKYAKFFPVIFTGRTSESGLIRSITLKLGAPQRVRLLAYAKYAVYGLGYKPTSEPDFVEKSVISRSVMLMSYLRLRLILELMELFQGMKKLKHTIYGFYGQLVGGITNSVKRITCSV,failed
7,AIDENKQKALAAALGQIEKQFGKGSIMRLGEDRSMDVETISTGSLSLDIALGAGGLPMGRIVELYGPESSGKTTLTLQVIAAAQREGKTCAFIDAEHALDPIYARKLGVDIDNLLCSQPDTGEQALEICDALARSGAVDVIVVDSVAALTPKAEIEGEIGDSHMGLAARMMSQAMRKLAGNLKQSNTLLIFINQIRMKIGVMFGNPETTTGGNALKFYASVRLDIRRIGAVKEGENVVGSETRVKVVKNKIAAPFKQAEFQILYGEGINFYGELVDLGVKEKLIEKAGAWYSYKGEKIGQGKANATAWLKDNPETAKEIEKKVRELLLSNPNSTPDFSVDDSEGVAETNEDF,not failed
8,DSASQAEQFLKLVHADKLTVPVYAQVQQMLAQRFAQAKAPESKKAVLERYQAKANAELDRAIGWDKIKPELIKLYTTNFTESELKDLNAFYQSPLGKKVLEKMPRLTAESAQLTQAKLQGAVEPVNKLMADMDKELGVAAPAQKKK,not failed
9,MDSSDSHVGQDVYVDQGLGEPDRLERLWAPYRMSYINTRSGGKQSTTAKRDPFIEVPKMSDEDGLIVARGELVYCVLNLYPYNAGHMMVIPFRKEKNLEDLSLAESAELMLFTQTAIKALKQVSNPDAVNVGLNLGKASGGSVGDHLHVHVVPRWSGDANFMTVIDGVKVLPQTLRQTRAMLAQAWGTIDGAPGTVDPTLTSAIRTAAPKEH,failed
10,QLGGDMKTIAIADRTGEYEQLFKENDEFRFVHAEKTAEEYRKMGADKSGIDAVLEIRQDLLEDPNAVAIYGYKQLPASVSNHISRILSDYLSDKKIASYNIPDIKQILADSKIELSVHTYKWSEDGTNERTSGELASGIS,not failed
11,MKQILFLLAAVLLLGGCAEEKKTDVRWATFNIRYDNPQDSLNNWQYRKDRVCQFIKDHELDIVGMQEVLHNQFQDLRAGLPEYDGIGVGRDDGKTAGEYAPLFYRKDKYEVLDSNTFWLAENPDSVGMMGWDAVCVRIATWAKFKDKATGKIFMAVNTHFDHVGEEARRQSALLIIRKIKEIVGERPAVVTGDFNVTDASDAYETITTNEFVMKDAYKTAARVTGVDYTFHDFARIPAEDCEKIDFIFVTPQVLVKSCEIPAEVPEALLSDHNPQLADLEF,failed
12,MLISLIVPIYNVEGFLPRCLDSIIKQEYQNLEIVLVNDGSTDQSGLICDQYAEKDERFIVFHKENGGVSSARNVGLNKANGNYIGFVDPDDWIEPNMINKLYELIIQHKADIAMCGYVKEDINGLLISRPVELSTKILNKEDTLNSILNPNDFRGFLCNKLFSVDLFRKKNLYLDEDIHFCEDLLFCCQAILESKQIVYDSTPYYHYIIHNNNASKSNFSFKKLTALNSLDNIINLLNDQKGIELEQYKNYYMHLNISLLMNGIHEDKIRRQDKERLKKNLYKFKINDLTSKFVKFSCVLARLNLNLYYFIWKNAKPSNLEHHHHHH,failed
13,MCLDACLTPDLADRDPVGRACDRAYVIDRPVFRSAMGNCRPSHFRGNGTHAAMNGESCAQRGKRTHKMQESEFFQLSGTTAVLLLVAFYGATFLMSLMIGQKKENVDGYMVSNSSVGFGLSAASMIATWIWAASFYASATSGFKYGLSGPIHYGFWGALMILFIYPFGKRFRQLAPKAHTLAEVIHARHGASSQMIMAVSNIVGSCISLMVNFTAAGALVSVLSPLSFIQGVLIAGLGVLSYTLWSGFRASVMTDFAQLVAMILAAVIIIPLIFFNAGGPDMLQANMWRLSSEQADFFSTTAILEQGAPYFVAVLAYAIGNQTIAQRLFAVREDLIKPTFLTATIGYGAVVIGLGMLGLLALFVGLEPVNGNMNNIIPQMASTYLPPVGIALFFILVVGSLSSTADSDLAALSAIVMTDIYAKNLAGGRPDPRRMLWWGRATMIVATMVGVIFASLRLDILVMLVFVGALWGAIVFPVIASFYWDRVSNSAFFWSVISAVVLFTIVRFELVPIEGAVAVFYEICAAIGGGVVIGLMSFAFFGRVTALTLGTLATLFLLPCFVGTLREYIVLLGSLTAYGVSTVVCVALSLRNQERFDFSLLAERVTSFHYEKARMMGAKPAAPAAQPQPARG,failed
14,MRKVQVLVQTRDGKKTVYEVDRLGTVASLKARIGQVMSVPMGFSRLSYKGRVLSNQSVLEDLGPNKSTLDLTWKPVVLTANQSSKLSKFGYGRIDDSEVMFTLIGGYQQREEYPGGLVNPPDDESQLNFNAGDDDDALEAQDMTGHDLSSIQTDDLSLKGQTEPELDCSIGSHGFSGSQEEGHE,failed
15,MSLSNTPIELKGSSFTLSVVHLHEAEPEVIRQALEDKIAQAPAFLKHAPVVINVSGLESPVNWPELHKIVTSTGLRIIGVSGCKDASLKVEIDRMGLPLLTEGKEKAVRPAPEGHHHHHH,not failed
